In PMC9408933, “Discovery of the Key Mutation Site Influencing the Thermostability of Thermomyces lanuginosus Lipase by Rosetta Design Programs” (International Journal of Molecular Sciences, 2022):

Substrate: CCCCCCCCCCCCCCCC(=O)Oc1ccc([N+](=O)[O-])cc1
Experiment: p-nitrophenol release, Michaelis-Menten fit
Assay type: biochemical, Thermomyces lanuginosus
Conditions: 37 °C, pH 9.0, 100 mM Tris-HCl, pNPP 0.08-10.00 mM, apparent Km
Excerpt: p-nitrophenol release, Michaelis-Menten fit on TLL (Thermomyces lanuginosus lipase)

B1: TLL (Thermomyces lanuginosus lipase) (Thermomyces lanuginosus) (protein)
chain: EVSQDLFNQFNLFAQYSAAAYCGKNNDAPAGTNITCTGNACPEVEKADATFLYSFEDSGVGDVTGFLALDNTNKLIVLSFRGSRSIENWIGNLNFDLKEINDICSGCRGHDGFTSSWRSVADTLRQKVEDAVREHPDYRVVFTGHSLGGALATVAGADLRGNGYDIDVFSYGAPRVGNRAFAEFLTVQTGGTLYRITHTNDIVPRLPPREFGYSHSSPEYWIKSGTLVPVTRNDIVKIEGIDATGGNNQPNIPDIPAHLWYFGLIGTCL
notes: N-terminal His-tag, secreted from Pichia pastoris GS115 (pPIC9K), Ni-NTA purified
Question: What does the source list for B1?
Answer: Km: 160 ± 30 µM; Vmax: 297 µmol/min/mg; kcat: 850 ± 11.8 s⁻¹; kcat/Km: 5.31e+06 ± 74000 M⁻¹ s⁻¹
